Test results as given in patent US20130244255A1, “ANTIBODIES DIRECTED TO GPNMB AND USES THEREOF” (priority 2006, published 2013).

What was measured:
GPNMB [1] = molecular target: T1, GPNMB (Homo sapiens, UniProt Q14956); assay: BiaCore 2000 analysis of hybridoma supernatants binding to GPNMB; settings: mAb captured on protein A; GPNMB at 880 nM; 1:1 kinetic model
T1 construct: we cloned the human CG56972 extracellular domain (ECD; aa 23-480); made in house; host or cells: HEK 293 cells
T1 sequence (Q14956 23-492): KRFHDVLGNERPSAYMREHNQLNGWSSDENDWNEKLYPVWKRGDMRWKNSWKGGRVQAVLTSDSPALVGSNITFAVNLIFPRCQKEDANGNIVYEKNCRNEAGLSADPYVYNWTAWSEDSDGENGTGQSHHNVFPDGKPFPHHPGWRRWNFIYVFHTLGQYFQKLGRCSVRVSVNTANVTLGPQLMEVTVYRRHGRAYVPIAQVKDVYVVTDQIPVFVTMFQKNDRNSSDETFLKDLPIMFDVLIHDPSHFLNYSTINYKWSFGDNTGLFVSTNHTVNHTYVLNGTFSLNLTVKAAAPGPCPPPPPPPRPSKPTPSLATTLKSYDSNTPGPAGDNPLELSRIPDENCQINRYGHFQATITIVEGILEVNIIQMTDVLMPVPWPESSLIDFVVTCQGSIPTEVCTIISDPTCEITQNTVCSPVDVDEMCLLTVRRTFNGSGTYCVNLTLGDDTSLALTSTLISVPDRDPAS
Description: Certain Hybridoma cell supernatants (29) were analyzed for binding to GPNMB by BiaCore® 2000 biosensor equipped with a research-grade CM5 sensor chip. A 1:25 dilution of cell supernatant was passed over a protein A surface for 5 min followed by washing the surface for 10 mins. Subsequently, GPNMB was injected for 90 sec. over the surface at a concentration of 880 nM followed by dissociation. Double-referenced binding data were obtained by subtracting the signal from a control flow cell and subtracting the baseline drift of a buffer injected just prior to the antigen injection. GPNMB binding data for each mAb was normalized for the amount of mAb captured on each surface. Normalized, drift corrected responses were also measured. The sensorgrams were fit to a simple 1:1 kinetic model.

GPNMB [2] = molecular target: T1, GPNMB; assay: ELISA of hybridoma supernatants for binding to GPNMB
Description: After 14 days of culture, hybridoma supernatants were screened for GPNMB specific monoclonal antibodies. In the Primary screen, the ELISA plates (Fisher, Cat. No. 12-565-136) were coated with 50 μL/well of GPNMB (1 μg/mL) in Coating Buffer (0.1 M Carbonate Buffer, pH 9.6, NaHCO3 8.4 g/L), then incubated at 4° C. overnight. After incubation, the plates were washed with Washing Buffer (0.05% Tween 20 in PBS) three times. 200 μL/well Blocking Buffer (0.5% BSA, 0.1% Tween 20, 0.01% Thimerosal in 1×PBS) were added and the plates were incubated at room temperature for 1 h. After incubation, the plates were washed with Washing Buffer three times. Aliquots (50 μL/well) of hybridoma supernatants and positive and negative controls were added, and the plates were incubated at room temperature for 2 h. The positive control used throughout was serum from the relevant GPNMB immunized XenoMouse® mouse and the negative control was serum from the KLH-immunized relevant strain of XenoMouse® mouse. After incubation, the plates were washed three times with Washing Buffer. 100 μL/well of detection antibody goat anti-huIgGfc-HRP (Caltag, Cat. No. H10507, using concentration was 1:2000 dilution) was added and the plates were incubated at room temperature for 1 hour. After incubation, the plates were washed three times with Washing Buffer. 100 μl/well of TMB (BioFX Lab. Cat. No. TMSK-0100-01) was added, and the plates were allowed to develop for about 10 minutes (until negative control wells barely started to show color). 50 μl/well stop solution (TMB Stop Solution (BioFX Lab. Cat. No. STPR-0100-01) was then added and the plates were read on an ELISA plate reader at a wavelength of 450 nm.
Hybridoma supernatants were screened for binding to GPNMB by ELISA as described above in Example 2.

[3] = molecular target: T2, cell membrane-bound GPNMB protein (Homo sapiens, UniProt Q14956); assay: FACS analysis of anti-GPNMB antibody binding to melanoma cell lines; settings: primary antibody 1 μg/mL
T2 construct: endogenous in cells; host or cells: UACC-62 and a panel of melanoma lines (A5)
T2 sequence (Q14956 23-572): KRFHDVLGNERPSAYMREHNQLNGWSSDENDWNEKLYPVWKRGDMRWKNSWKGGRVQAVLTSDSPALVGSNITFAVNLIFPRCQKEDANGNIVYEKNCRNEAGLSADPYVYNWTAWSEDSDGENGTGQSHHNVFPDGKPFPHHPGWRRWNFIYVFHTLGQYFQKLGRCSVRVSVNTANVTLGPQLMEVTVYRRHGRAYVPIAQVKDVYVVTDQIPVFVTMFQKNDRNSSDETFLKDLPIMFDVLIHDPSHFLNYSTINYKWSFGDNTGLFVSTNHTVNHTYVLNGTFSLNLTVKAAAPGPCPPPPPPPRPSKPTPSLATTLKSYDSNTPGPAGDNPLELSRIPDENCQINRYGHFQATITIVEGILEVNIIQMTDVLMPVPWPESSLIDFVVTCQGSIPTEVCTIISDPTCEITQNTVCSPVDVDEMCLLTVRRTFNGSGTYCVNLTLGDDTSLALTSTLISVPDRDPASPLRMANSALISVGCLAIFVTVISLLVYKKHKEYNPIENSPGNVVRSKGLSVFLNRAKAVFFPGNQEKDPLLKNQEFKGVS

GPNMB [4] = molecular target: T1, GPNMB; assay: Binning of antibodies (Luminex competitive binding); settings: three bins of six anti-GPNMB antibodies
Description: Certain antibodies, described herein were binned in accordance with the protocol described in U.S. Patent Application Publication No. 20030157730. M×hIgG conjugated beads are prepared for coupling to primary antibody. The volume of supernatant needed is calculated using the following formula: (n+10)×50 μL (where n=total number of samples on plate). Where the concentration is known, 0.5 μg/mL is used. Bead stock is gently vortexed, then diluted in supernatant to a concentration of 2500 of each bead per well or 0.5×10^5/mL and incubated on a shaker in the dark at RT overnight, or 2 hours if at a known concentration of 0.5 μg/mL. Following aspiration, 50 μL of each bead is added to each well of filter plate, then washed once by adding 100 μL/well wash buffer and aspirating. Antigen and controls are added to filter plate 50 μL/well then covered and allowed to incubate in the dark for 1 hour on shaker. Following a wash step, a secondary unknown antibody is added at 50 μL/well using the same dilution (or concentration if known) as is used for the primary antibody. The plates are then incubated in the dark for 2 hours at RT on shaker followed by a wash step. Next, 50 μL/well biotinylated m×hIgG diluted 1:500 is added and allowed to incubate in the dark for 1 hour on shaker at RT. […] Following a wash step, each well is resuspended in 80 μL blocking buffer and read using Luminex. […]

GPNMB [5] = molecular target: T3, GPNMB (Homo sapiens, UniProt Q14956); assay: GPNMB immunohistochemistry (IHC) on human tissue microarrays; type: binding; settings: normal and tumor human tissue microarrays (lung, ovarian, renal, esophagus, head & neck carcinomas, squamous cell carcinoma, melanomas, normal skin)
T3 construct: Tissue sections (5 μm) were cut from formalin fixed and paraffin embedded tissue samples; tissue IMPATH, Los Angeles, Calif; host or cells: normal and tumor human tissue microarrays (melanoma, lung and other carcinomas, skin)
T3 sequence (Q14956 23-572): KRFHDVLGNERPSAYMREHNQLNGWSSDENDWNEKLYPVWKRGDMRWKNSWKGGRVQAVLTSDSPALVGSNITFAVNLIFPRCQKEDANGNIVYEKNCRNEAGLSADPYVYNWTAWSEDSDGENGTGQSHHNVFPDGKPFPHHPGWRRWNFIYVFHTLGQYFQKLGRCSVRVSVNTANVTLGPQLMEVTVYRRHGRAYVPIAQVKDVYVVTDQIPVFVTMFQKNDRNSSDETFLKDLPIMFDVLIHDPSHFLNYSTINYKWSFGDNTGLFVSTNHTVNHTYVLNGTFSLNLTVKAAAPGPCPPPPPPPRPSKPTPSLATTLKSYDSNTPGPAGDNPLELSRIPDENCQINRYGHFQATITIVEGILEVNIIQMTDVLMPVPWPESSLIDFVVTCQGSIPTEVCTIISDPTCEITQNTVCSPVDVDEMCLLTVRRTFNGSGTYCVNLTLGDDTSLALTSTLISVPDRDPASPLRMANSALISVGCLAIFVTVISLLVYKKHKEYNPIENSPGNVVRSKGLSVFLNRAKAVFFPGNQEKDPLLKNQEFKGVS
Description: Anti-GPNMB monoclonal antibodies were evaluated for reactivity with frozen and fixed tissue specimens. Tissue sections (5 μm) were cut from formalin fixed and paraffin embedded tissue samples and were rehydrated through incubations in xylene and a graded ethanol series terminating in PBS. Endogenous peroxidase activity was quenched in a 3% solution of hydrogen peroxide in methanol
Tissue sections were blocked in blocking buffer (5% BSA (Sigma), 1% goat serum (Jackson Immunolabs, West Grove, Pa.) in PBS) for 1 hour. Primary and secondary antibodies were precomplexed in 5% BSA and 1% goat serum in PBS for 1 hour at 37° C. at a molar ratio of approximately 10:1 of anti-GPNMB or control IgG to secondary biotinylated goat anti-human IgG (Jackson Immunolabs). Complexes were blocked with a 1:2000 dilution of human serum and incubated again for 1 hour at 37° C. Tissue sections were incubated with anti-GPNMB antibody or isotype control antibody complexes diluted in blocking buffer for 1 hour. Sections were washed in 3 changes of PBS for 5 to 10 minutes each and incubated with a 1:200 dilution of streptavidin conjugated horseradish peroxidase (Jackson Immunolabs) in blocking buffer for 30 minutes and then washed as before. Antibody was detected using DAB reagent (Vector labs). […]

[6] = TK10 Cells (GPNMB negative control)

Molecule | ka (GPNMB [1]) | kd (GPNMB [1]) | Avg OD (GPNMB [2]; antibody at 12.3 ng/mL) | Avg OD (GPNMB [2]; antibody at 37 ng/mL) | Avg OD (GPNMB [2]; antibody at 111 ng/mL) | Avg OD (GPNMB [2]; antibody at 333 ng/mL) | Avg OD (GPNMB [2]; antibody at 1 μg/mL) | Avg OD (GPNMB [2]; antibody at 3 μg/mL) | Geo Mean Ratio of anti-GPNMB Staining (relative to pK16) [3, 6] | Geo Mean Ratio of anti-GPNMB Staining (relative to pK16) ([3]; UACC-62 Cells) | bin (GPNMB [4]) | IHC staining (GPNMB [5])
1.2.2: human anti-GPNMB antibody; VH SEQ ID NO: 38, VL SEQ ID NO: 47 (antibody, listed as Homo sapiens, V domains shown) VH: ITLKESGPTLVKPTQTLTLTCTFSGFSLSAGGVGVGWIRQPPGKALEWLALIYWNDDKRYSPSLRSRLTITKDTSKNQVVLTITNMDPVDTATYYCAHSHYDYDWGSYFDYWGQGTLVTVSSA VL: DIVMTQTPLSLPVTPGEPASISCRSSQSLLDSDDGNTYLDWYLQKPGQSPQLLIYTLSYRASGVPDRFSGSGSGTDFTLNISRVEAEDVGVYYCMQRIEFPITFGQGTRLEIKR | 9257 M⁻¹ s⁻¹ | 0.00089 s⁻¹ | 0.049 | 0.094 | 0.199 | 0.356 | 0.499 | 0.763 | L. 0.98 | K. 1.24 |  | 
1.7.1: human anti-GPNMB antibody; VH SEQ ID NO: 56, VL SEQ ID NO: 65 (antibody, listed as Homo sapiens, V domains shown) VH: QVQLQESGPGLVKPSQTLSLTCTVSGGSISSANYYWTWIRQHPGKGLEWIGYIYYSGSTYCNPSLKSRVIISVDTSKNQFSLKLSSVTAADTAVYYCARGYNWNYFDYWGQGTLVTVSSA VL: DIVMTQSPATLSVSPGERATLSCRASQSVSSNLAWYQERPGQAPRLLIYGASTRATGIPARFSGSGSGTEFTLTISSLQSEDFAVYYCQQYNKWPPWTFGQGTKVEIER | 11842 M⁻¹ s⁻¹ | 0.00144 s⁻¹ |  |  |  |  |  |  |  |  |  | 
2.22.1: human anti-GPNMB antibody; VH SEQ ID NO: 164, VL SEQ ID NO: 173 (antibody, listed as Homo sapiens, V domains shown) VH: QVQLEQSGPGLVKPSQNLSLTCTVSGGSISSGGYFWSWIRQHPGKGLEWIGYIYYSGNTYYNPSLKSRVTISVDTSKNQFSLKLSSVTAADTAVYYCARDYYYDTSGFSYRYDWYYGMDVWGQGTTVTVSSA VL: DIQLTQSPSSLSASVGDRVTITCRASQGIRNDLGWYQQKPGKAPKRLIYAASSLQNGVPSRFSGSGSGTEFTLTISSLQPEDFATYYCLQHNTYPAFGQGTKVEIKR |  |  |  |  |  |  |  |  | I. 1.10 | H. 4.46 | Bin 1 | Positive staining
1.10.2: human anti-GPNMB antibody; VH SEQ ID NO: 2, VL SEQ ID NO: 11 (antibody, listed as Homo sapiens, V domains shown) VH: QVQLQESGPGLVKPSETLSLTCTVSGDSISNYYWSWIRQPPGKGLEWIGYFYYSGSTNYNPSLKSRVTISVDTSKNQFSLKLSSVTAADTAVYYCARDRGWADYWGQGTLVTVSSA VL: EIVLTQSPGTLSLSPGERATLSCRTSQSISSSYLAWYQQKPGQVPRLLIYGASSRATGIPDRFSGSGSGTDFTLTISRLEPEDFAVYYCQQYGSSITFGQGTRLEIKR | 3955 M⁻¹ s⁻¹ | 0.000466 s⁻¹ |  |  |  |  |  |  |  |  |  | 
